# Data reported in PMC4709722, “Flavone synthases from Lonicera japonica and L. macranthoides reveal differential flavone accumulation” (Scientific Reports, 2016).
# B1: LjFNSII-1.1 (Lonicera japonica; S122A) (protein)
# chain: MWIFDLTISFTTLLFLIFTTALLLLLKVFKKNHKLRPPPSPFTLPIIGHLHLLGPLIHQSFHRLSTLYGPLIQLKIGYIPCVVASTPELAKEFLKTHELAFSSRKHSAAIKLLTYDVSFAFAPYGPYWKFIKKTCTFELLGTRNMNHFLPIRTNEIRRFLQVMLEKAKASEGVNVTEELIKLTNNVISQMMFSTRSSGTEGEAEEMRTLVREVTQIFGEFNVSDFIKLCKNIDIGGFKKRSKDIQKRYDALLEKIISERESERARRGKNRETLGEEGGKDFLDMMLDTMEDGKCEVEITRDHIKALVLDFLTAATDTTAIAVEWTLAELISNPEVFDKAREEIDKVVGKHRLVTELDTPNLPYIHAIIKESFRLHPPIPLLIRKSVQDCTVGGYHISANTILFVNIWAIGRNPKYWESPMKFWPERFLESNGPGPVGSMDIKGHHYELLPFGSGRRGCPGMALAMQELPVVLAAMIQCFNWKPVTLDGEELDMSERPGLTAPRAHDLVCVPSARINSFDNF
# B2: LjFNSII-2.1 (Lonicera japonica) (protein)
# chain: MWIFDLTISFTTLLFLIFTTALLLLLKVFKKNHKLRPPPSPFTLPIIGHLHLLGPLIHQSFHRLSTLYGPLIQLKIGYIPCVVASTPELAKEFLKTHELAFSSRKHSAAIKLLTYDVSFAFSPYGPYWKFIKKTCTFELLGTRNMNHFLPIRTNEIRRFLQVMLEKAKASEGVNVTEELIKLTNNVISQMMFSTRSSGTEGEAEEMRTLVREVTQIFGEFNVSDFIKLCKNIDIGGFKKRSEDIQKRYDALLEKIISERESERARRGKNRETLGEEGGKDFLDMMLDTMEDGKCEVEITRDHIKALVLDFLTAATDTTAIAVEWTLAELISNPEVFDKAREEIDKVVGKHRLVTELDTPNLPYIHAIIKESFRLHPPIPLLIRKSVQDCTVGGYHISANTILFVNIWAIGRNPKYWESPMKFWPERFLESNGPGPVGSMDIKGHHYELLPFGSGRRGCPGMALAMQELPVVLAAMIQCFNWKPVTLDGEELDMSERPGLTAPRAHDLVCVPSARINSFDNF
# B3: LjFNSII-1.1 (Lonicera japonica) (protein)
# chain: MWIFDLTISFTTLLFLIFTTALLLLLKVFKKNHKLRPPPSPFTLPIIGHLHLLGPLIHQSFHRLSTLYGPLIQLKIGYIPCVVASTPELAKEFLKTHELAFSSRKHSAAIKLLTYDVSFAFSPYGPYWKFIKKTCTFELLGTRNMNHFLPIRTNEIRRFLQVMLEKAKASEGVNVTEELIKLTNNVISQMMFSTRSSGTEGEAEEMRTLVREVTQIFGEFNVSDFIKLCKNIDIGGFKKRSKDIQKRYDALLEKIISERESERARRGKNRETLGEEGGKDFLDMMLDTMEDGKCEVEITRDHIKALVLDFLTAATDTTAIAVEWTLAELISNPEVFDKAREEIDKVVGKHRLVTELDTPNLPYIHAIIKESFRLHPPIPLLIRKSVQDCTVGGYHISANTILFVNIWAIGRNPKYWESPMKFWPERFLESNGPGPVGSMDIKGHHYELLPFGSGRRGCPGMALAMQELPVVLAAMIQCFNWKPVTLDGEELDMSERPGLTAPRAHDLVCVPSARINSFDNF
# B4: LmFNSII-1.1 (Lonicera macranthoides; V204M) (protein)
# chain: MLIFDLTISFTTLLFLIFTTALLLKVFKKNHKLQPPPSPFTLPIIGHLHLLGPLIHQSFHRLSTLYGPLIQLKIGYIPCVVASTPELAKEFLKTHELAFSSRKHSAAIKLLTYDVSFAFAPYGPYWKFIKKTCTFELLGTRNMNHFLPIRTNEIRRFLQVMLEKAKASEGVNVTEELIKLTNNVISQMMFSTRSSGTEGEAEEMRTLVREVTQIFGEFNVSDFIKLCKNIDIGGFKKRSEDIQKRYDALLEKIISERESERARRGKNRETLGEEGGKDFLDMMLDTMEDGKCEVEITRDHIKALVLDFLTAATDTTAIAVEWTLAELISNPEVFDKAREEIDKVVGKHRLVTELDTPNLPYIHAIIKESFRLHPPIPLVIRKSVQDCTVGGYHISANTILFINIWAIGRNPKYWESPMKFWPERFLESNEPGSVGSTDIKGHHYELLPFGSGRRGCPGMALAMQELPVVLAAMIQCFNWKPVTLDGEELDMSERPGLTAPRAHDLVCVPSARINSFDNF
# B5: LmFNSII-1.1 (Lonicera macranthoides) (protein)
# chain: MLIFDLTISFTTLLFLIFTTALLLKVFKKNHKLQPPPSPFTLPIIGHLHLLGPLIHQSFHRLSTLYGPLIQLKIGYIPCVVASTPELAKEFLKTHELAFSSRKHSAAIKLLTYDVSFAFAPYGPYWKFIKKTCTFELLGTRNMNHFLPIRTNEIRRFLQVMLEKAKASEGVNVTEELIKLTNNVISQMMFSTRSSGTEGEAEEVRTLVREVTQIFGEFNVSDFIKLCKNIDIGGFKKRSEDIQKRYDALLEKIISERESERARRGKNRETLGEEGGKDFLDMMLDTMEDGKCEVEITRDHIKALVLDFLTAATDTTAIAVEWTLAELISNPEVFDKAREEIDKVVGKHRLVTELDTPNLPYIHAIIKESFRLHPPIPLVIRKSVQDCTVGGYHISANTILFINIWAIGRNPKYWESPMKFWPERFLESNEPGSVGSTDIKGHHYELLPFGSGRRGCPGMALAMQELPVVLAAMIQCFNWKPVTLDGEELDMSERPGLTAPRAHDLVCVPSARINSFDNF
# What was measured:
# Assay in all cases: cells, lysate or membranes
# [1] = substrate: O=C1C[C@@H](c2ccc(O)c(O)c2)Oc2cc(O)cc(O)c21; settings: NADPH, potassium phosphate, product luteolin
# [2] = substrate: O=C1C[C@@H](c2ccc(O)cc2)Oc2cc(O)ccc21; settings: apparent Km; NADPH, potassium phosphate, optimized conditions (about pH 7.5, 37 °C); product 7,4'-dihydroxyflavone; pH 7.5; 37.0 °C
# [3] = substrate: O=C1C[C@@H](c2ccc(O)cc2)Oc2cc(O)cc(O)c21; settings: apparent Km; NADPH, potassium phosphate, optimized conditions (about pH 7.5, 37 °C); product apigenin; pH 7.5; 37.0 °C
# [4] = apparent Km, optimized conditions (about pH 7.5, 37 °C), pH 7.5, 37.0 °C
Protein,Km ([1]; optimized conditions),kcat ([1]; optimized conditions),Km [2],Vmax [2],kcat [2],kcat/Km [2],"Km [1, 4]","Vmax [1, 4]","kcat [1, 4]","kcat/Km [1, 4]",Km [3],Vmax [3],kcat [3],kcat/Km [3]
B1,10.53 ± 1.18 µM,6.08 ± 0.5 s⁻¹,,,,,,,,,,,,
B2,,,2.56 (0.03) μM,0.124 µM/min,1.18 s⁻¹,462000 M⁻¹ s⁻¹,2.05 (0.04) μM,0.0984 µM/min,0.94 s⁻¹,460000 M⁻¹ s⁻¹,1.63 (0.06) μM,0.0288 µM/min,0.28 s⁻¹,170000 M⁻¹ s⁻¹
B3,,,6.48 (0.26) μM,0.461 µM/min,4.41 s⁻¹,681000 M⁻¹ s⁻¹,5.07 (0.05) μM,0.267 µM/min,2.56 s⁻¹,504000 M⁻¹ s⁻¹,9.93 (0.64) μM,0.166 µM/min,1.59 s⁻¹,160000 M⁻¹ s⁻¹
B4,8.47 ± 0.52 µM,5.08 ± 0.30 s⁻¹,,,,,,,,,,,,
B5,,,2.38 (0.07) μM,0.0738 µM/min,0.7 s⁻¹,295000 M⁻¹ s⁻¹,3.09 (0.17) μM,0.0462 µM/min,0.44 s⁻¹,142000 M⁻¹ s⁻¹,1.63 (0.12) μM,0.021 µM/min,0.2 s⁻¹,122000 M⁻¹ s⁻¹
